Paper PMC9263355

Tests used:
[1] = target: recombinant human galectin-8N (human); test: fluorescence polarisation; fluorescence anisotropy in solution, by inhibition: fixed galectin (0.2-2.5 µM) with 0.02 µM of its fluorescent probe, in the presence of 0.07-[…] (rh)4-1BB Fc or (rh)IgG1 Fc; average Kd from the points with ≥ 15% inhibition
[2] = target: recombinant human galectin-9N (human); test: as above
[3] = target: recombinant human galectin-9C (human); test: as above
[4] = target: 4-1BB on CD3/CD28-activated human CD4 T cells (human (endogenous in CD4 T cells)) (UniProt Q07011)
Sequence of 4-1BB on CD3/CD28-activated human CD4 T cells (human (endogenous in CD4 T cells)) (Q07011 24-255): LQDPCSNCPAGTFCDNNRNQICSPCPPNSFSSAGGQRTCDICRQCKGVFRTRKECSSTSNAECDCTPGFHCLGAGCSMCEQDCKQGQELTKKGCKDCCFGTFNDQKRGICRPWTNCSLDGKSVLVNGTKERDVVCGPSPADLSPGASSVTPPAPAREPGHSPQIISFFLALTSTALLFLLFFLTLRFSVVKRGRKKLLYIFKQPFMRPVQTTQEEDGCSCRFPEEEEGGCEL

Sequence of recombinant human (rh)4-1BB Fc chimera protein (Q07011 24-186, change not shown): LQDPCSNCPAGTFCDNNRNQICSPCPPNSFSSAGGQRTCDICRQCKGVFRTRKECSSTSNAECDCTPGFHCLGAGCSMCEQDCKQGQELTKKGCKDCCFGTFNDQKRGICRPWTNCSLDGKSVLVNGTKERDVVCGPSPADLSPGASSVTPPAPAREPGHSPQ
Sequence of Gal-3 in normal human plasma (P17931 whole entry): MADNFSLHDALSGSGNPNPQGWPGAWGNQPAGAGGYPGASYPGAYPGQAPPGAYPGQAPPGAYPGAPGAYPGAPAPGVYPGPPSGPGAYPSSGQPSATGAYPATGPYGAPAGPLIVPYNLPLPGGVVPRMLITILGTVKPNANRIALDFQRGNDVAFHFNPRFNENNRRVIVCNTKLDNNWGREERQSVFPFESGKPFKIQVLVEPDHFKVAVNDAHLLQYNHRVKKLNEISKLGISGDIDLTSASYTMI

| Kd [1] [µM] | Kd [2] [µM] | Kd [3] [µM] | fold decrease in fraction of 4-1BB+CD4+ T cells that produced TNFα upon 4-1BBL stimulation, after pre-incubation of activated CD4 T-cells with plasma [4] [fold] | Substance |
| --- | --- | --- | --- | --- |
| 3.59 | 1.39 | 2.24 |  | recombinant human (rh)4-1BB Fc chimera protein (from UniProt Q07011 24-186) (Fc fusion) |
|  |  |  | 3.8 | Gal-3 in normal human plasma (from UniProt P17931 1-250) (natural protein) |
